Data published in publication doi:10.1101/2023.11.14.567104.
pKd: −log10 of the molar value.

Target: Recombinant soluble integrin αvβ3 (UniProt P06756)
Assay: SPR

pKd: 6.33
Substance: Heparin-binding domain (HBD, residues 111-165) of VEGF165, wild type (domain or fragment)
